The text below walks through data of PMC2872155.

Data set [1] concerns VP35 IID (Zaire ebolavirus). The data set is described as follows: ITC. As to conditions: not given in the material (Methods absent).
Data set [2] deals with VP35 IID (Zaire ebolavirus). Briefly: NMR competition. Conditions: 5'ppp; not given in the material (Methods absent).
Data set [3] has as its system VP35 IID (Zaire ebolavirus). The data set is described as follows: NMR. As to conditions: 5'ppp; not given in the material (Methods absent).

For orientation: Kd means the concentration at which binding is half-saturated. Low readings indicate a tighter complex, high ones a looser complex. The substance 8 bp dsRNA gave a dissociation constant Kd in data set [1] of 500 nM. That is a sub-micromolar value. As for IVT-8 bp dsRNA, the figures for the binding signal (relative HSQC peak intensity) in data set [2] and in data set [3] were 0.42 and 0.36, respectively.
